In publication PMC4983702 one finds Kd data, which are given here for one molecule.

The target of the test is Aar-MBP fusion protein (E. coli (EAEC 042)). Description: SPR. On the technique in general: SPR reads the build-up and loss of mass on a sensor chip optically.

B1: AggR-MBP fusion protein (natural protein)
chain: MKLKQNIEKEIIKINNIRIHQYTVLYTSNCTIDVYTKEGSNTYLRNELIFLERGINISVRLQKKKSTVNPFIAIRLSSDTLRRLKDALMIIYGISKVDACSCPNWSKGIIVADADDSVLDTFKSIDHNDDSRITSDLIYLISKIENNRKIIESIYISAVSFFSDKVRNTIEKDLSKRWTLAIIADEFNVSEITIRKRLESEYITFNQILMQSRMSKAALLLLDNSYQISQISNMIGFSSTSYFIRLFVKHFGITPKQFLTYFKSQ
In the case of B1, the Kd lay within 20 to 40 nM.

One may read the Kd as the equilibrium constant for the complex coming apart. Low readings indicate a tighter complex, high ones a looser complex.
